Our source for the copies of Gag per LucVpr molecule in VLP (copies of Gag per LucVpr molecule) and copies of Gag per Vpr molecule in VLP (copies of Gag per Vpr molecule) values is publication PMC3207847, “Characterization of a Novel Type of HIV-1 Particle Assembly Inhibitor Using a Quantitative Luciferase-Vpr Packaging-Based Assay” (PLoS ONE, 2011).

For the experiment, the target named is HIV-1 Gag precursor Pr55Gag, full-length wild type (HIV-1) (UniProt P03348). Description: co-sedimentation.

“luciferase-Vpr fusion protein (LucVpr) (from UniProt P05928 1-96) (natural protein)” yielded a copies of Gag per LucVpr molecule in VLP (copies of Gag per LucVpr molecule) of 4.92. Turning to “oligohistidine-tagged HIV-1 Vpr protein (from UniProt P05928 1-96) (natural protein)”, the copies of Gag per Vpr molecule in VLP (copies of Gag per Vpr molecule) was determined as 5.6.
